What follows are binders tested against T1, elongation initiation factor 4E (eIF4E) (UniProt P06730 2-217, limits assumed) (assay: SPR (Biacore T100), eIF4E immobilised on CM5 chip, peptide as analyte).
T1 construct: mature; In SPR it was amine-coupled to a CM5 chip with m7GTP present; also called full-length eIF4E; GS-eIF4E (biotinylated form used only for phage panning)
Description: Running buffer consisted of 10 mM Hepes pH 7.6, 0.15 M NaCl, and 0.1% Tween20. Stock/DMSO diluted peptide solutions were diluted into 1.03× running buffer to make a peptide solution with 3% DMSO final concentration. […] Surface Plasmon resonance experiments were performed on a Biacore T100 machine.
Pure eIF4E was immnobilized on a CM5 sensor chip. The CM5 chip was conditioned with a 6 s injection of 100 mM HCL, followed by a 6 s injection of 0.1% SDS and completed with a 6 s injection of 50 mM NaOH at a flow rate of 100 μl/min. Activation of the sensor chip surface was performed with a mixture of NHS (115 mg ml⁻¹) and EDC (750 mg ml⁻¹) for 7 min at 10 μl min⁻¹. Purified eIF4E was diluted with 10 mM sodium acetate buffer (pH 5.0) to a final concentration of 0.5 μM with m⁷GTP present in a 2:1 ratio in order to stabilize eIF4E. The amount of eIF4E immobilized on the activated surface was controlled by altering the contact time of the protein solution and was approximately 1000 RU. After the immobilization of the protein, a 7-min injection (at 10 μl min⁻¹) of 1 M ethanolamine (pH 8.5) was used to quench excess active succinimide ester groups.
Six buffer blanks were first injected to equilibrate the instrument fully and then a solvent correction curve was performed followed by a further two blank injections. […] Using a flow rate of 50 μl/min, compounds were injected for 60 s and dissociation was monitored for 180 s. The data collection rate was 10 Hz. Kds were determined using the BiaEvaluation software (Biacore) and calculated from both the response of the eIF4E coated CM5 chips at equilibrium and also kinetically from the dissociation and association phase data for each of the peptides. Both the equilibrium and kinetic data were fitted to 1:1 binding models. Each individual peptide Kd was determined from three separate titrations. Within each titration at least two concentration points were duplicated to ensure stability and robustness of the chip surface.

T1 sequence (P06730 2-217 limits assumed): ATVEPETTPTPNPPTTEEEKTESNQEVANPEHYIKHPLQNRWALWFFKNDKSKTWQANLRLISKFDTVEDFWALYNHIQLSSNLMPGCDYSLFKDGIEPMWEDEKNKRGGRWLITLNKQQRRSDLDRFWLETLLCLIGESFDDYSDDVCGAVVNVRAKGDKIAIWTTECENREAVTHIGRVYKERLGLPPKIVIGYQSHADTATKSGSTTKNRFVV

Binder	Kd [nM]	Fold change (KD against EE-2) [fold]
ACDMGFFQDCG (HELM PEPTIDE1{A.C.D.M.G.F.F.Q.D.C.G.[am]}$PEPTIDE1,PEPTIDE1,2:R3-10:R3$$$V2.0; SMILES CSCC[C@@H]1NC(=O)[C@H](CC(=O)O)NC(=O)[C@@H](NC(=O)[C@H](C)N)CSSC[C@@H](C(=O)NCC(N)=O)NC(=O)[C@H](CC(=O)O)NC(=O)[C@H](CCC(N)=O)NC(=O)[C@H](Cc2ccccc2)NC(=O)[C@H](Cc2ccccc2)NC(=O)CNC1=O, EE-02 with E3D) [EE-19]	26000	
ACEMGYYQDCG (HELM PEPTIDE1{A.C.E.M.G.Y.Y.Q.D.C.G.[am]}$PEPTIDE1,PEPTIDE1,2:R3-10:R3$$$V2.0; SMILES CSCC[C@@H]1NC(=O)[C@H](CCC(=O)O)NC(=O)[C@@H](NC(=O)[C@H](C)N)CSSC[C@@H](C(=O)NCC(N)=O)NC(=O)[C@H](CC(=O)O)NC(=O)[C@H](CCC(N)=O)NC(=O)[C@H](Cc2ccc(O)cc2)NC(=O)[C@H](Cc2ccc(O)cc2)NC(=O)CNC1=O, EE-02 with F6Y and F7Y) [EE-37]	350	
ACEIGFFQDCG (HELM PEPTIDE1{A.C.E.I.G.F.F.Q.D.C.G.[am]}$PEPTIDE1,PEPTIDE1,2:R3-10:R3$$$V2.0; SMILES CC[C@H](C)[C@@H]1NC(=O)[C@H](CCC(=O)O)NC(=O)[C@@H](NC(=O)[C@H](C)N)CSSC[C@@H](C(=O)NCC(N)=O)NC(=O)[C@H](CC(=O)O)NC(=O)[C@H](CCC(N)=O)NC(=O)[C@H](Cc2ccccc2)NC(=O)[C@H](Cc2ccccc2)NC(=O)CNC1=O, EE-02 with M4I) [EE-20]	1600	
ACEMGFFLDCG (HELM PEPTIDE1{A.C.E.M.G.F.F.L.D.C.G.[am]}$PEPTIDE1,PEPTIDE1,2:R3-10:R3$$$V2.0; SMILES CSCC[C@@H]1NC(=O)[C@H](CCC(=O)O)NC(=O)[C@@H](NC(=O)[C@H](C)N)CSSC[C@@H](C(=O)NCC(N)=O)NC(=O)[C@H](CC(=O)O)NC(=O)[C@H](CC(C)C)NC(=O)[C@H](Cc2ccccc2)NC(=O)[C@H](Cc2ccccc2)NC(=O)CNC1=O, EE-02 with Q8L) [EE-41 (ACEMGFFLDCG)]	190	0.9
ACEMGFFGDCG (HELM PEPTIDE1{A.C.E.M.G.F.F.G.D.C.G.[am]}$PEPTIDE1,PEPTIDE1,2:R3-10:R3$$$V2.0; SMILES CSCC[C@@H]1NC(=O)[C@H](CCC(=O)O)NC(=O)[C@@H](NC(=O)[C@H](C)N)CSSC[C@@H](C(=O)NCC(N)=O)NC(=O)[C@H](CC(=O)O)NC(=O)CNC(=O)[C@H](Cc2ccccc2)NC(=O)[C@H](Cc2ccccc2)NC(=O)CNC1=O, EE-02 with Q8G) [EE-40]	400	1.9
ACEMGFFKDCG (HELM PEPTIDE1{A.C.E.M.G.F.F.K.D.C.G.[am]}$PEPTIDE1,PEPTIDE1,2:R3-10:R3$$$V2.0; SMILES CSCC[C@@H]1NC(=O)[C@H](CCC(=O)O)NC(=O)[C@@H](NC(=O)[C@H](C)N)CSSC[C@@H](C(=O)NCC(N)=O)NC(=O)[C@H](CC(=O)O)NC(=O)[C@H](CCCCN)NC(=O)[C@H](Cc2ccccc2)NC(=O)[C@H](Cc2ccccc2)NC(=O)CNC1=O, EE-02 with Q8K) [EE-39 (ACEMGFFKDCG)]	109	0.5
ACEMGFYQDCG (HELM PEPTIDE1{A.C.E.M.G.F.Y.Q.D.C.G.[am]}$PEPTIDE1,PEPTIDE1,2:R3-10:R3$$$V2.0; SMILES CSCC[C@@H]1NC(=O)[C@H](CCC(=O)O)NC(=O)[C@@H](NC(=O)[C@H](C)N)CSSC[C@@H](C(=O)NCC(N)=O)NC(=O)[C@H](CC(=O)O)NC(=O)[C@H](CCC(N)=O)NC(=O)[C@H](Cc2ccc(O)cc2)NC(=O)[C@H](Cc2ccccc2)NC(=O)CNC1=O, EE-02 with F7Y) [EE-35 (ACEMGFYQDCG)]	137	
ACELGFFQDCG (HELM PEPTIDE1{A.C.E.L.G.F.F.Q.D.C.G.[am]}$PEPTIDE1,PEPTIDE1,2:R3-10:R3$$$V2.0; SMILES CC(C)C[C@@H]1NC(=O)[C@H](CCC(=O)O)NC(=O)[C@@H](NC(=O)[C@H](C)N)CSSC[C@@H](C(=O)NCC(N)=O)NC(=O)[C@H](CC(=O)O)NC(=O)[C@H](CCC(N)=O)NC(=O)[C@H](Cc2ccccc2)NC(=O)[C@H](Cc2ccccc2)NC(=O)CNC1=O, EE-02 with M4L) [EE-21]	2500	
ACEMGYFQDCG (HELM PEPTIDE1{A.C.E.M.G.Y.F.Q.D.C.G.[am]}$PEPTIDE1,PEPTIDE1,2:R3-10:R3$$$V2.0; SMILES CSCC[C@@H]1NC(=O)[C@H](CCC(=O)O)NC(=O)[C@@H](NC(=O)[C@H](C)N)CSSC[C@@H](C(=O)NCC(N)=O)NC(=O)[C@H](CC(=O)O)NC(=O)[C@H](CCC(N)=O)NC(=O)[C@H](Cc2ccccc2)NC(=O)[C@H](Cc2ccc(O)cc2)NC(=O)CNC1=O, EE-02 with F6Y) [EE-30 (ACEMGYFQDCG)]	85	
ACEMGWFQDCG (HELM PEPTIDE1{A.C.E.M.G.W.F.Q.D.C.G.[am]}$PEPTIDE1,PEPTIDE1,2:R3-10:R3$$$V2.0; SMILES CSCC[C@@H]1NC(=O)[C@H](CCC(=O)O)NC(=O)[C@@H](NC(=O)[C@H](C)N)CSSC[C@@H](C(=O)NCC(N)=O)NC(=O)[C@H](CC(=O)O)NC(=O)[C@H](CCC(N)=O)NC(=O)[C@H](Cc2ccccc2)NC(=O)[C@H](Cc2c[nH]c3ccccc23)NC(=O)CNC1=O, EE-02 with F6W) [EE-31]	5900	
ACEMGFWQDCG (HELM PEPTIDE1{A.C.E.M.G.F.W.Q.D.C.G.[am]}$PEPTIDE1,PEPTIDE1,2:R3-10:R3$$$V2.0; SMILES CSCC[C@@H]1NC(=O)[C@H](CCC(=O)O)NC(=O)[C@@H](NC(=O)[C@H](C)N)CSSC[C@@H](C(=O)NCC(N)=O)NC(=O)[C@H](CC(=O)O)NC(=O)[C@H](CCC(N)=O)NC(=O)[C@H](Cc2c[nH]c3ccccc23)NC(=O)[C@H](Cc2ccccc2)NC(=O)CNC1=O, EE-02 with F7W) [EE-36]	2600	
ACEXGFFQDCG (HELM PEPTIDE1{A.C.E.[O=C([C@H](CC1CCC1)N[*:1])[*:2]].G.F.F.Q.D.C.G.[am]}$PEPTIDE1,PEPTIDE1,2:R3-10:R3$$$V2.0; SMILES C[C@H](N)C(=O)N[C@H]1CSSC[C@@H](C(=O)NCC(N)=O)NC(=O)[C@H](CC(=O)O)NC(=O)[C@H](CCC(N)=O)NC(=O)[C@H](Cc2ccccc2)NC(=O)[C@H](Cc2ccccc2)NC(=O)CNC(=O)[C@H](CC2CCC2)NC(=O)[C@H](CCC(=O)O)NC1=O, EE-02 with M4 replaced by cyclobutylalanine) [EE-23]	35000	
ACEMXFFQDCG (sarcosine (Sar) at position 5; free N-terminal amine; C-terminal amide; disulphide bond between Cys2 and Cys10, EE-02 with G5 replaced by sarcosine) [EE-28]	4200	
CEMGFFADC (HELM PEPTIDE1{C.E.M.G.F.F.A.D.C.[am]}$PEPTIDE1,PEPTIDE1,1:R3-9:R3$$$V2.0; SMILES CSCC[C@@H]1NC(=O)[C@H](CCC(=O)O)NC(=O)[C@@H](N)CSSC[C@@H](C(N)=O)NC(=O)[C@H](CC(=O)O)NC(=O)[C@H](C)NC(=O)[C@H](Cc2ccccc2)NC(=O)[C@H](Cc2ccccc2)NC(=O)CNC1=O, EE-02 without A1 and G11 and with Q8A) [EE-44 (CEMGFFADC)]	79	0.4
ACEXGFFQDCG (norleucine (Nle) at position 4; free N-terminal amine; C-terminal amide; disulphide bond between Cys2 and Cys10, EE-02 with M4 replaced by norleucine) [EE-22]	520	

The binders below were run against T1, elongation initiation factor 4E (eIF4E) (assay: competitive fluorescence anisotropy, panel 'Peptide Interaction Site': displacement of the FAM labelled tracer peptide …-(FAM) (50 nM) from eIF4E (200 nM) [cont'd) B]).
Description: Apparent Kd values were then determined for a variety of molecules via competitive anisotropy experiments.
[L]ₛₜ and [L]ₜ denote labeled ligand and total unlabeled ligand input concentrations, respectively. Kd2 is the dissociation constant of the interaction between the unlabelled ligand and the protein. In all competitive types of experiments, it is assumed that [P]ₜ>[L]ₛₜ, otherwise considerable amounts of free labeled ligand would always be present and would interfere with measurements. Kd1 is the apparent Kd for the labeled peptide used in the respective experiment. […] Readings were carried out with a Envision Multi-label Reader (PerkinElmer). […] All titrations were carried out in triplicate. Curve-fitting was carried out using Prism 4.0 (GraphPad).

Binder	IC50 (read off the curve) [nM]
KKRYSRDQLVAL (Phage-derived linear peptive with the canonical motif; also called PHAGSOL; PhageSol peptide) [PHAGESOL (KKRYSRDQLVAL)]	~400

— patent publication US20220242906A1 (AGENCY FOR SCIENCE TECHNOLOGY AND RESEARCH, published 2022)
